Where “and” joins values, the source holds several entries; their conditions need not be identical. Identical values can stand only once.

Drawing on publication PMC6775164, this text covers stoichiometry N for 2 substances.

In experiment [1] the target is P74-26 major capsid protein (gene product 86) (bacteriophage P74-26). The experiment is described as follows: cryo-EM structure; single-particle reconstruction of the capsid of purified P74-26 virions with icosahedral symmetry imposed; virions in 50 mM Tris pH 8.0, 10 mM NaCl, 10 mM MgCl2; 2.8 Å (0.143 FSC).
For experiment [2], the target named is P74-26 decoration protein (gene product 87) (bacteriophage P74-26). The experiment is described as above.

As to “P74-26 major capsid protein (gene product 86) (natural protein)”, the stoichiometry N (in general, the number of molecules, sites or subunits per partner or assembly) in experiment [1] is 5 and 6. In experiment [2], “P74-26 decoration protein (gene product 87) (natural protein)” showed a stoichiometry N of 3.
